# Measured values: the supplement of paper PMC10567573
# B1: SOAT1 (parent)
# chain: PSNGRIDIKQLIAKKIKLTAEAEE
# Variants of: B1
# Experiment: protein stability index of a GFP-peptide fusion (GPS, HEK-293T) (PSI 1-6); higher = more stable
# Conditions: c terminus: a fixed tail appended
# 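Further: lentivirally expressed fusions sorted by FACS into six bins by GFP to DsRed ratio, PSI derived from sequencing read proportions per bin multiplied by bin number.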
row,Variant,protein stability index
1,PYNGRIDIKQLIAKKIKLTAEAEE [S2Y],2.88
2,PENGRIDIKQLIAKKIKLTAEAEE [S2E],3.46
3,PDNGRIDIKQLIAKKIKLTAEAEE [S2D],4.03
4,PINGRIDIKQLIAKKIKLTAEAEE [S2I],3.33
5,PGNGRIDIKQLIAKKIKLTAEAEE [S2G],3.64
6,PANGRIDIKQLIAKKIKLTAEAEE [S2A],2.88
7,PSNGRIDIKQLIAKKIKLTTEAEE [A20T],3.47
8,PSNGRIDIKQLIAKKIKLTEEAEE [A20E],3.88
9,PSNGRIDIKQLIAKKIKLTCEAEE [A20C],3.44
10,PSNGRIDIKQLIAKKIKLTYEAEE [A20Y],2.8
11,PSNGRIDIKQLIAKKIKLTSEAEE [A20S],3.61
12,PSNGRIDIKQLIAKKIKLTHEAEE [A20H],3.66
13,PSNGRIDIKQLIAKKIKLTREAEE [A20R],3.07
14,PSNGRIDIKQLIAKKIKLTMEAEE [A20M],2.71
15,PSNGRIDIKQLIAKKIKLTAEMEE [A22M],3
16,PSNGRIDIKQLIAKKIKLTAEVEE [A22V],2.94
17,PSNGRIDIKQLIAKKIKLTAECEE [A22C],2.63
18,PSNGRIDIKQLIAKKIKLTAEYEE [A22Y],2.91
19,PSNGRIDIKQLIAKKIKLTAETEE [A22T],2.82
20,PSNGRIDIKQLIAKKIKLTAENEE [A22N],3.32
21,PSNGRIDIKQLIAKKIKLTAEEEE [A22E],3.93
22,PSNGRIDIKQLIAKKIKLTAEGEE [A22G],3.66
23,PSNGRIDIKQLIAKKIKLTAEREE [A22R],2.79
24,PSNGRIDIKQKIAKKIKLTAEAEE [L11K],3.68

row,Variant,protein stability index
1,PSNGRIDIKQFIAKKIKLTAEAEE [L11F],3.38
2,PSNGRIDIKQDIAKKIKLTAEAEE [L11D],4.04
3,PSNGRIDIKQNIAKKIKLTAEAEE [L11N],3.6
4,PSNGRIDIKQQIAKKIKLTAEAEE [L11Q],3.58
5,PSNGRIDIKQEIAKKIKLTAEAEE [L11E],4.15
6,PSNGRIDIKQRIAKKIKLTAEAEE [L11R],3.93
7,PSNGRIDIKQSIAKKIKLTAEAEE [L11S],3.75
8,PSNGRIDIKQLMAKKIKLTAEAEE [I12M],3.7
9,PSNGRIDIKQLRAKKIKLTAEAEE [I12R],3.85
10,PSNGRIDIKQLNAKKIKLTAEAEE [I12N],3.99
11,PSAGRIDIKQLIAKKIKLTAEAEE [N3A],4.25
12,PSPGRIDIKQLIAKKIKLTAEAEE [N3P],4.11
13,PSFGRIDIKQLIAKKIKLTAEAEE [N3F],3.55
14,PSVGRIDIKQLIAKKIKLTAEAEE [N3V],3.58
15,PSWGRIDIKQLIAKKIKLTAEAEE [N3W],3.45
16,PSMGRIDIKQLIAKKIKLTAEAEE [N3M],3.66
17,PSDGRIDIKQLIAKKIKLTAEAEE [N3D],4.38
18,PSNGRIDIKQLIAKKAKLTAEAEE [I16A],4.04
19,PSNGRIDIKQLIAKKPKLTAEAEE [I16P],3.81
20,PSNGRIDIKQLIAKKTKLTAEAEE [I16T],4.1
21,PSNGRIDIKQLIAKKCKLTAEAEE [I16C],3.31
22,PSNGRIDIKQLIAKKKKLTAEAEE [I16K],4.01
23,PSNQRIDIKQLIAKKIKLTAEAEE [G4Q],3.57
24,PSNPRIDIKQLIAKKIKLTAEAEE [G4P],4.09

row,Variant,protein stability index
1,PSNMRIDIKQLIAKKIKLTAEAEE [G4M],3.61
2,PSNTRIDIKQLIAKKIKLTAEAEE [G4T],3.49
3,DSNGRIDIKQLIAKKIKLTAEAEE [P1D],3.27
4,ASNGRIDIKQLIAKKIKLTAEAEE [P1A],3.1
5,QSNGRIDIKQLIAKKIKLTAEAEE [P1Q],3.23
6,TSNGRIDIKQLIAKKIKLTAEAEE [P1T],3.64
7,KSNGRIDIKQLIAKKIKLTAEAEE [P1K],3.04
8,CSNGRIDIKQLIAKKIKLTAEAEE [P1C],2.86
9,RSNGRIDIKQLIAKKIKLTAEAEE [P1R],3.35
10,FSNGRIDIKQLIAKKIKLTAEAEE [P1F],3.22
11,VSNGRIDIKQLIAKKIKLTAEAEE [P1V],2.98
12,ISNGRIDIKQLIAKKIKLTAEAEE [P1I],3.57
13,HSNGRIDIKQLIAKKIKLTAEAEE [P1H],3.24
14,SSNGRIDIKQLIAKKIKLTAEAEE [P1S],3.46
15,PSNGRIDIKQLISKKIKLTAEAEE [A13S],3.36
16,PSNGRIDIKQLIVKKIKLTAEAEE [A13V],2.84
17,PSNGRIDIKQLINKKIKLTAEAEE [A13N],3.35
18,PSNGRIDIKQLIRKKIKLTAEAEE [A13R],3.57
19,PSNGRIDIKQLITKKIKLTAEAEE [A13T],3.08
20,PSNGRIDIKQLILKKIKLTAEAEE [A13L],3.13
21,PSNGRIDIKQLIQKKIKLTAEAEE [A13Q],3.47
22,PSNGRIDIKQLICKKIKLTAEAEE [A13C],2.82
23,PSNGRIDIKQLIIKKIKLTAEAEE [A13I],3.3
24,PSNGRIDIKQLIYKKIKLTAEAEE [A13Y],2.97

row,Variant,protein stability index
1,PSNGRIDIKQLIAKKIKLVAEAEE [T19V],2.75
2,PSNGRIDIKQLIAKKIKLYAEAEE [T19Y],2.52
3,PSNGRIDIKQLIAKKIKLHAEAEE [T19H],3.21
4,PSNGRIDIKQLIAKKIKLQAEAEE [T19Q],2.96
5,PSNGRIDIKQLIAKKIKLPAEAEE [T19P],3.4
6,PSNGRIDIKQLIAKKIKLRAEAEE [T19R],2.73
7,PSNGRIDIKQLIAKKIKLIAEAEE [T19I],2.12
8,PSNGRIDIKQLIAKKIKLMAEAEE [T19M],1.89
9,PSNGRIDIKQLIAKKIKLWAEAEE [T19W],2.21
10,PSNGRIDIKQLIAKKIKLGAEAEE [T19G],3.17
11,PSNGRIDIKQLIAKKIKLEAEAEE [T19E],3.88
12,PSNGRIDIKQLIAKKIKLLAEAEE [T19L],2.15
13,PSNGRIDIKQLIAKKIKLAAEAEE [T19A],3.48
14,PSNGRIDIKQLIAKKIKLSAEAEE [T19S],2.9
15,PSNGRIDIKQLIAKKIKLFAEAEE [T19F],1.98
16,PSNGRIDIKQLIAKKIKLKAEAEE [T19K],2.52
17,PSNGRIDIKQLIAKKIKLTAEAEI [E24I],2.27
18,PSNGRIDIKQLIAKKIKLTAEAEF [E24F],2.22
19,PSNGRIDIKQLIAKKIKLTAEAEC [E24C],3.19
20,PSNGRIDIKQLIAKKIKLTAEAEV [E24V],2.48
21,PSNGRIDIKQLIAKKIKLTAEAEW [E24W],2.44
22,PSNGRIDIKQLIAKKIKLTAEAEN [E24N],3.07
